Patent CN116745314A

Target: spike glycoprotein of live SARS-CoV-2 (isolate USA-WA1/2020) (SARS-CoV-2) (UniProt P0DTC2)
Test: cell-based or functional assay

In the case of S2D106-LS (antibody), the EC50 (live SARS-CoV-2-luc neutralisation, MOI 0.1, 6 h) is reported as 6 ng/mL, the EC90 (live SARS-CoV-2-luc neutralisation, MOI 0.1, 6 h) is reported as 22 ng/mL and the IC50 (live SARS-CoV-2-luc neutralisation, MOI 0.1, 6 h) is reported as 4.49 ng/mL.
